Test results reported in US20100233095A1 (ADLYFE, published 2010).
pyrene = pyrene (fluorescent label); PBA = not defined here

Experiments:
[1] = target: T1, Aβ42 Fiber (insoluble Aβ42 target protein fibers) (UniProt P05067 672-713); assay: centrifugation of insoluble fibers with soluble probe, SDS-PAGE of the pellet, 40% TFE
T1 construct: domain: Aβ1-42; Insoluble fibrillar aggregate of Aβ42; also called Aβ 1-42 fiber; Aβ42 fibers
Description: Aβ42 Fiber (target protein) and peptide probe (SEQ ID NO:1) are incubated for 3 hours in the presence of increasing amounts of trifluoroethanol (TFE). The samples are centrifuged at 17,000×g for 30 minutes, and the pellets are denatured in sample buffer and analyzed by SDS-PAGE. Reference samples (Input) are shown for comparison. In this example, binding of target protein and peptide probe is clearly observed at the 40% TFE condition (compare left and right panels at 40% TFE, where the “peptide” band appears in the left panel but not the right panel).

[2] = target: T2, Aβ42 oligomer (soluble Aβ42 target protein oligomers) (UniProt P05067 672-713); assay: G25 size exclusion spin column, fluorescence of the eluant; 2 µM probe, 2 µM oligomer
T2 construct: domain: Aβ1-42; Soluble oligomeric aggregate; also called synthetic Aβ42 oligomer
Description: Labeled peptide probe (SEQ ID NO:1, 2 μM) and target protein (Aβ oligomers, 2 μM) are incubated together for 90 minutes in Hepes buffer (10 mM, pH 7.0) and then loaded onto a G25 size exclusion column, which has a 5000 Da molecular weight cutoff. The column is subjected to centrifugation at 735×g for 2 minutes. Eluants and column material are analyzed by a TECAN fluorimeter. This method is illustrated in FIG. 14A. Eluant also may be analyzed by SDS-PAGE (not shown).

[3] = target: T3, biotinylated Aβ 42 oligomer (UniProt P05067 672-713, biotin (site not stated)); assay: streptavidin bead capture of biotinylated oligomer, SDS-PAGE
T3 construct: domain: Aβ1-42; Captured on streptavidin-coated magnetic beads; also called biotin-labeled soluble Aβ42 target protein oligomers; synthetic biotinylated oligomer
Description: Labeled peptide probe (SEQ ID NO:1, 2 μM) and biotinylated target protein (Aβ 42 oligomers, 2 μM) are incubated in PBS for 30 minutes. The mixture is then subjected to a capture step using magnetic beads coated with streptavidin. The beads are washed with PBS to remove unbound material and the captured material is analyzed by SDS-PAGE.

[4] = target: T4, streptavidin (on magnetic dynabeads) (UniProt P22629 37-163, limits assumed); assay: streptavidin bead pull-down (protocol B) without biotinylated oligomer, SDS-PAGE
T4 construct: Capture reagent; also called streptavidin bead; magnetic streptavidin beads
Description: In an alternative assay with Peptide 22 (protocol B, illustrated in FIG. 5A), […] biotinylated Aβ 42 oligomer was incubated with pre-washed streptavidin dynabeads at room temperature for 30 minutes. The complex was then washed two times with PBS buffer, and resuspended in PBS buffer. Equal volumes of bound oligomer and 4 μM labeled peptide probe (SEQ ID NO:2) were then combined, and incubated for 30 minutes at room temperature. Unbound material was then washed away with three PBS washes, followed by the collection of the bead complexes by magnet. The complex was then resuspended in 1×LDS buffer, boiled for 10 minutes, and loaded on 10% Bis-Tris gels.

[5] = target: T5, bovine serum albumin (control substrate) (bovine, UniProt P02769 25-607); assay: pyrene monomer fluorescence of di-pyrene Peptide 22 over time, in water, substrate 0.03-0.3 uM
T5 construct: also called BSA
Description: FIG. 12 illustrates the specificity of Peptide 22 (SEQ ID NO:2) for soluble Aβ oligomers. The first two panels show the dose-dependent increase in pyrene monomer signal when Peptide 22 is incubated with soluble Aβ oligomers prepared by two different methods. The next two panels show no change in fluorescence when Peptide 22 is incubated with Aβ40 monomers and Aβ42 monomers. […] The last two panels show no change in fluorescence when Peptide 22 is incubated with control solutions (BSA or Anhydrase). […] (dotted line=0.3 uM substrate; dashed line=0.1 uM; dashed/dot line=0.03 uM; solid line=p22 alone).
Peptide 22 (100 nM) is incubated in water for 15 hours at room temperature with equimolar concentrations ([…]) of several potential A0 substrates: Aβ42 oligomer (type 1); Aβ42 oligomer (type 2); Aβ 1-42 monomer; Aβ 1-40 monomer; Aβ 1-42 fiber; Aβ 1-40 fiber; bovine serum albumin (control substrate); and carbonic anhydrase (control substrate).

[6] = target: T2, Aβ42 oligomer (soluble Aβ42 target …); assay: pyrene fluorescence, aqueous assay; transition from excimer to self-fluorescence
[7] = target: T2, Aβ42 oligomer (soluble Aβ42 target …); assay: pyrene fluorescence of di-pyrene Peptide 45 with 0, 0.03, 0.1 and 0.3 µM Aβ42 oligomer; free peptide 9:1

T2 sequence (P05067 672-713 limits assumed): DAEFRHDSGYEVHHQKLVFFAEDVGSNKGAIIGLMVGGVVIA
T5 sequence (P02769 25-607 limits assumed): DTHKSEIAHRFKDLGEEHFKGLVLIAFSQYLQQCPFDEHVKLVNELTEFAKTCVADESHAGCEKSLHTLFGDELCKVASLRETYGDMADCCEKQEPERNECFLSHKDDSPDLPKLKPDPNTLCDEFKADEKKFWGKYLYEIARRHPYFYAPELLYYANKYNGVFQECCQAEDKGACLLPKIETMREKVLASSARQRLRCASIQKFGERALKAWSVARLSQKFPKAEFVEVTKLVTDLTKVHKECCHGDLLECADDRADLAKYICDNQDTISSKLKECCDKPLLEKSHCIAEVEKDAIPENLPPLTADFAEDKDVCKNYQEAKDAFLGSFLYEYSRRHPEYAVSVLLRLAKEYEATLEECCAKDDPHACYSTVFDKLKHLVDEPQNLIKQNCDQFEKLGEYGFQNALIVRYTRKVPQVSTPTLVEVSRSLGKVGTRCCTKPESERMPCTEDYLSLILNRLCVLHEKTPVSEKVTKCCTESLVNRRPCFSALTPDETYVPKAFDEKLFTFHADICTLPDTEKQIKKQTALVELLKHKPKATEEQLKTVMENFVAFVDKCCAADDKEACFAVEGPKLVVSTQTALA
T4 sequence (P22629 37-163 limits assumed): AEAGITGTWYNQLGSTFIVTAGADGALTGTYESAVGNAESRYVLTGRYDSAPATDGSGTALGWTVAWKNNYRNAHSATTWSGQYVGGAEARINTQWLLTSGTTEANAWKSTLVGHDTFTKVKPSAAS
T3 sequence (P05067 672-713 limits assumed): as the sequence (P05067 672-713 limits assumed) above
T1 sequence (P05067 672-713 limits assumed): as above

B1: peptide probe of SEQ ID NO:1 (WT reference sequence, Aβ protein residues 16-35 with added C-terminal Lys) (peptide)
peptide: {PBA}-KLVFFAEDVGSNKGAIIGLMK(PBA)-NH2
modifications: reading uncertain; also: labels are the default, some assays say only 'labeled', centrifugation assay may use unlabeled peptide
notes: Synthetic probe; also called wildtype
[1]
  binding result: binds
[2]
  binding result: binds
[3]
  binding result: binds

B2: Peptide 22 (SEQ ID NO:2) (peptide)
peptide: pyrene-KLVFFAEDVGSNKHAIIELMK(pyrene)-NH2
notes: Designed variant of the Aβ 16-35 probe with a salt bridge; also called P22; p22
[4]
  binding result: no binding (tested: 4 µM)
[5]
  binding result: no binding (tested: 0.3 uM)

B3: Peptide 22 variation 1 (SEQ ID NO:14) (peptide)
peptide: pyrene-KLVFFAEDVGSNKRAIIELMK(pyrene)-NH2
notes: also called P22 v.1; Peptide 22 var
[6]
  binding result: binds

B4: Peptide 22 variation 2 (SEQ ID NO:15) (peptide)
peptide: pyrene-KLVFFAEDVGSNKKAIIELMK(pyrene)-NH2
notes: also called P22 v.2; Peptide 22 var
[6]
  binding result: binds

B5: Peptide 45 (SEQ ID NO:4) (peptide)
peptide: pyrene-KAAAKLVFFAEDVGSNKHAIIELMK-NH2
modifications: not fully specified (residue 25)
notes: also called P45
[7]
  excimer:monomer fluorescence ratio: 20 ratio (x:1)
